Editing efficiency data for one molecule are collected here from patent US20200149021, “SYSTEM AND METHOD FOR GENOME EDITING” (INSTITUTE OF ZOOLOGY, CHINESE ACADEMY OF SCIENCES, published 2020).

One data set deals with T1, BsCpf1 (Butyrivibrio sp. NC30).
T1 chain: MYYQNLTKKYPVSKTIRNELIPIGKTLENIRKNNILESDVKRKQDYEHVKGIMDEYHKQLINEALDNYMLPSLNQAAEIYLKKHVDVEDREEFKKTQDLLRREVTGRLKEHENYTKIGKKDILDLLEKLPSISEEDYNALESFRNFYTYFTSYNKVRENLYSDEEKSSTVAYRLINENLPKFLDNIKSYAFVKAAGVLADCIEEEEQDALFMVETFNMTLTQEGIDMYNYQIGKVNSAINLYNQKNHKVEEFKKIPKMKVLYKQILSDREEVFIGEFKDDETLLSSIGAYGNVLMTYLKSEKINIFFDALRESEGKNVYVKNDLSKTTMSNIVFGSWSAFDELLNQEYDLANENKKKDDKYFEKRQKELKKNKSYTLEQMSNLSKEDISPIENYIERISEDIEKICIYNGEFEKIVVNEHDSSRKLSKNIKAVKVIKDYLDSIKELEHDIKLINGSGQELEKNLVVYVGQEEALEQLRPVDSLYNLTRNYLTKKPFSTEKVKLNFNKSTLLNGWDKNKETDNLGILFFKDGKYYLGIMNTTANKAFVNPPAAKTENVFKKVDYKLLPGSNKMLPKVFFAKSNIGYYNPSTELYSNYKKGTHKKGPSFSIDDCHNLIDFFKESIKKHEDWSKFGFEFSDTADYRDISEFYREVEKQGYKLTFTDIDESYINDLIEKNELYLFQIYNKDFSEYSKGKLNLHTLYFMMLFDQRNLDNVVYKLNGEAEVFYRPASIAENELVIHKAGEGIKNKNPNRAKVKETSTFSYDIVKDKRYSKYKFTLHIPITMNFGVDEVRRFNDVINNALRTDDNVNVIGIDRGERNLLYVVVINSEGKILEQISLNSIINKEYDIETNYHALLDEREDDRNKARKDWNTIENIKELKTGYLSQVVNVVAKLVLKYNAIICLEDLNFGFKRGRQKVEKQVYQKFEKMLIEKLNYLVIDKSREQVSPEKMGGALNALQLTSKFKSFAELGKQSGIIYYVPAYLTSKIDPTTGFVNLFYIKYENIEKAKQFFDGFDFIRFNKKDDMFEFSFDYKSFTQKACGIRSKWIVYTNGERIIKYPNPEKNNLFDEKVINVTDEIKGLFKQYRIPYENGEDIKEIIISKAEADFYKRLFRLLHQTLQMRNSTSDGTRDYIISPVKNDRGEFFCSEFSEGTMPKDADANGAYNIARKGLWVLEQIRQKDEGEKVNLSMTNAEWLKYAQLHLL
Briefly: cell_activity; PAM TTTC; T7EI. Particulars: tags: HA (2A-eGFP vector). The procedure: (§1) GFP-positive cells were sorted by FACS, lysed with Buffer L+ 1/100V Protease K (Biotool) at 55° C. for 30 min, inactivated at 95° C. for 5 min, and directly used for PCR detection. Appropriate primers were designed near the Cpf1 targeting site, and the amplified product was purified using DNA Clean & Concentrator™-5 kit (ZYMO Research). 200 ng of purified PCR product was added into 1 uL of NEBuffer2 (NEB) and diluted to 10 uL with ddH₂O. Then, heterodimers were formed by re-annealing according to the previously reported method (Li, W., et al., Simultaneous generation and germline transmission of multiple gene mutations in rat using CRISPR-Cas systems. Nat Biotechnol, 2013. 31(8): p. 684-6). The reannealed product was added with 0.3 uL of T7EI endnucelease and 1/10 V NEBuffer2 (NEB), and digested at 37° C. for 1 h 30 min. Genotype analysis was performed by 3% TAE-Gel electrophoresis. Indels were calculated according to the method reported in the previous article (Cong, L., et al., Multiplex genome engineering using CRISPR/Cas systems. Science, 2013. 339(6121): p. 819-23).
(§2) The cells were transfected with Cpf1, crRNA31, and crRNA2 plasmids, and it was confirmed by PCR and T7EI analysis that crRNA31 can increase the editing efficiency of five Cpf1s of ArCpf1, BsCpf1, HkCpf1, PrCpf1, and PxCpf1 at the site MeCP2-4 by two folds (FIG. 13B).

The next data set concerns the target T2, ArCpf1 (Agathobacter rectalis).
T2 chain: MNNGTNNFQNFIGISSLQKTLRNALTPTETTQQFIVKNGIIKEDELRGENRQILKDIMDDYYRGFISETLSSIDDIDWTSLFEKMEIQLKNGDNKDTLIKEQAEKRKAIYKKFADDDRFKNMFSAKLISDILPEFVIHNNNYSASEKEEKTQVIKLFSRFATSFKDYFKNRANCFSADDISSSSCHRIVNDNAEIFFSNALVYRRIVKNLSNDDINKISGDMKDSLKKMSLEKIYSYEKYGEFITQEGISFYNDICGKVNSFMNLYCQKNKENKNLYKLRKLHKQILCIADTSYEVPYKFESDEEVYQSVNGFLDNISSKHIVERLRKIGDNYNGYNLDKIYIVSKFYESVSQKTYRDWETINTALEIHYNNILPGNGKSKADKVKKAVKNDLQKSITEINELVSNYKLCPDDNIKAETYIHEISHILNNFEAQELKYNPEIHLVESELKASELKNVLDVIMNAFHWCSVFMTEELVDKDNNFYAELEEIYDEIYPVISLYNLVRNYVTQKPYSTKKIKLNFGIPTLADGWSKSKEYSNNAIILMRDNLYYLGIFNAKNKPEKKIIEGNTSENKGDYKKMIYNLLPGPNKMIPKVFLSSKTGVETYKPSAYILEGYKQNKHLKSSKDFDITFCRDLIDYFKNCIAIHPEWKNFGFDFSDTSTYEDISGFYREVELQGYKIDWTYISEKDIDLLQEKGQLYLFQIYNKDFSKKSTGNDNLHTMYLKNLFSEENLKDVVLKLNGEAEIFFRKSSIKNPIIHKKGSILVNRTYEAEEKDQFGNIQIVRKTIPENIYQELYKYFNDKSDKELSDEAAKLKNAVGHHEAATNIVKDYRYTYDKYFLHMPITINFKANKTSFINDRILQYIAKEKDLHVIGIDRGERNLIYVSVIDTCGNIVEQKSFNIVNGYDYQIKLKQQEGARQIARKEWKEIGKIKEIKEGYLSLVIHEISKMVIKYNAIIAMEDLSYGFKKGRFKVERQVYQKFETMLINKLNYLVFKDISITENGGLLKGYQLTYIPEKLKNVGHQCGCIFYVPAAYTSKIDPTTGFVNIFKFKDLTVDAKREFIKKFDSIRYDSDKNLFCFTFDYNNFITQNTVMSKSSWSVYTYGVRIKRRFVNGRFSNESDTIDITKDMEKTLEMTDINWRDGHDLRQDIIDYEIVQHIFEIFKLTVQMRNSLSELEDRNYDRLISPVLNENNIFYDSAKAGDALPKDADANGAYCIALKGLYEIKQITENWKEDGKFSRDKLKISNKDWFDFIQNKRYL
Briefly: cell_activity; PAM TTTC; T7EI. The settings on record: tags: NLS, HA (2A-eGFP vector). On the procedure:
as §1, §2

B1: crRNA31 MeCP2 site 4 ; Mouse MeCP2 site 4 (ssRNA ; dsDNA)
RNA: AUUUCUACUAUGGUAGAUGUGUCCAACCUUCAGGCAAGGUG
DNA 1: TTTCGTGTCCAACCTTCAGGCAAGGTG
DNA 2: CACCTTGCCTGAAGGTTGGACACGAAA
For B1, the editing efficiency with BsCpf1 and with ArCpf1 was roughly 2 fold vs crRNA2 throughout.
